From publication PMC9608600, “Functional Characterization of Saccharomyces cerevisiae P5C Reductase, the Enzyme at the Converging Point of Proline and Arginine Metabolism” (Microorganisms, 2022) come the findings set out here.

In data set [1] the target is T1, Saccharomyces cerevisiae P5C reductase (Pro3, ScP5CR) (Saccharomyces cerevisiae, UniProt P32263).
T1 construct: native full-length enzyme purified from commercial bakers' yeast; untagged; gene-deduced subunit 30,132 Da; native 320 kDa, homodecamer
T1 sequence (P32263 1-286): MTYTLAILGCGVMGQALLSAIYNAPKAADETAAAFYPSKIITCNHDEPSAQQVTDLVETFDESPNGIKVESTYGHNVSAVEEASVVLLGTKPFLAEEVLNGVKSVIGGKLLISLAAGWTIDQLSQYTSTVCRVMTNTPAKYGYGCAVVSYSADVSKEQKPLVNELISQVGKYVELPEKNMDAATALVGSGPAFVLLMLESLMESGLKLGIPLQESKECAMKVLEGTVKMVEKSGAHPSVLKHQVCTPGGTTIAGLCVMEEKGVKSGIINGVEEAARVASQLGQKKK
Nature of the data set: NAD(P)H oxidation at […] nm, nonlinear regression. Format: biochemical.

Substrate in data set [2]: NC(=O)C1=CN([C@@H]2O[C@H](COP(=O)(O)OP(=O)(O)OC[C@H]3O[C@@H](n4cnc5c(N)ncnc54)[C@H](O)[C@@H]3O)[C@@H](O)[C@H]2O)C=CC1
Nature of the data set: purified protein. In kind it is biochemical, Saccharomyces cerevisiae. As to conditions: 1 mM L-P5C, Tris-HCl pH 7.2, 30 °C, kcat per monomer.

Substrate in data set [3]: NC(=O)C1=CN([C@@H]2O[C@H](COP(=O)(O)OP(=O)(O)OC[C@H]3O[C@@H](n4cnc5c(N)ncnc54)[C@H](OP(=O)(O)O)[C@@H]3O)[C@@H](O)[C@H]2O)C=CC1
As to the kind of experiment: purified protein. In kind it is biochemical, Saccharomyces cerevisiae. As to conditions: 1 mM L-P5C, Tris-HCl pH 7.2, 30 °C, kcat per monomer.

Substrate in data set [4]: O=C(O)[C@@H]1CCC=N1
As to the kind of experiment: purified protein. As to conditions: 0.5 mM NADH co-substrate, Tris-HCl pH 7.2, 30 °C, DL-P5C used, concentration as L-P5C. Format: biochemical, Saccharomyces cerevisiae.

For `N=C(N)NCCC[C@H](N)C(=O)O` [arginine], in data set [1], the affinity corresponds to a Ki of 19 mM.

B1: Saccharomyces cerevisiae P5C reductase (Pro3, ScP5CR) (Saccharomyces cerevisiae S288C) (protein)
chain: T1 sequence (P32263 1-286)
notes: native full-length enzyme purified from commercial bakers' yeast; untagged; gene-deduced subunit 30,132 Da; native 320 kDa, homodecamer
On to B1, for which, in “purified protein [2]”, the Km amounted to 84.0 ± 7.1 µM, the Vmax is 107.9 ± 3.0 μkat (mg protein)^−1, the kcat was 3314 s⁻¹ and the kcat/Km was determined as 3.95e+07 M⁻¹ s⁻¹. For the same molecule, in the data set “purified protein [3]”, the Km came to 133.4 ± 7.3 µM, the Vmax is listed as 294.2 ± 5.7 μkat (mg protein)^−1, the kcat is listed as 10,515 s^−1 and the kcat/Km came out at 7.88e+07 M⁻¹ s⁻¹. Further, the Km in “purified protein [4]” amounted to 64.3 ± 5.5 µM.
